In IntAct's records for PubMed 20835227:

B1: DNA replication regulator SLD3 (Saccharomyces cerevisiae), P53135 (parent)
chain: METWEVIASVKEATKGLDLSLDHPLIIKSEDVPSNILQLLQQKNRRQLKHICMKSRKEYFLLEEYGPGFWVKWPYNYFNGYSLPERRTEVVTTVERERAKRETLKTWDELKFKELLHLWSEEPKGSCKLEKDKDLKLDMNPPDMKGESKINDYYSDPKEYIESKYYDALFSIHTPLAYFVKSNLVRLKNTCRTKYGSDSYKIAYQAMLQKFLLSIVQFKDRHDNRLLLEPFSSPIADEKRKNCLTKFVIQDENKNSSTIADLCVVLKSREIKLQILLLLEIIGLNDLDWNFRDFEKKYKLKLKKRSLNLTKKGLVRRRSKKKTSEKDKGIERITTSLDYCEQLDLYLDRACILDILLSSETPNPDAIEASNGTIQEHKKNILDKSKEASLVGFINYVLIPYFNKKVPHAVEFIIQKLKGPSMRPKRALKKVNDSTNVSSPNTVETYNRLSTSQRASRSSIINSVPSSPALRRVDANLFSRKSIASPTPELLNSRTNSNLNEFLESETRSLKRPSQLGRTKSDLTMNHLQKRQFSVSDLSTTRVPNSSTITLKTPFSHSTINAYKTMNNSFRRVGKRKDINETIRLHERVDSEENVQVQATPAVKKRTVTPNKKAQLQSIIESPLNFKDDDTHEGRKNTSNITSTPTNKPPENSSKRRVRRRLFAPEST
partner: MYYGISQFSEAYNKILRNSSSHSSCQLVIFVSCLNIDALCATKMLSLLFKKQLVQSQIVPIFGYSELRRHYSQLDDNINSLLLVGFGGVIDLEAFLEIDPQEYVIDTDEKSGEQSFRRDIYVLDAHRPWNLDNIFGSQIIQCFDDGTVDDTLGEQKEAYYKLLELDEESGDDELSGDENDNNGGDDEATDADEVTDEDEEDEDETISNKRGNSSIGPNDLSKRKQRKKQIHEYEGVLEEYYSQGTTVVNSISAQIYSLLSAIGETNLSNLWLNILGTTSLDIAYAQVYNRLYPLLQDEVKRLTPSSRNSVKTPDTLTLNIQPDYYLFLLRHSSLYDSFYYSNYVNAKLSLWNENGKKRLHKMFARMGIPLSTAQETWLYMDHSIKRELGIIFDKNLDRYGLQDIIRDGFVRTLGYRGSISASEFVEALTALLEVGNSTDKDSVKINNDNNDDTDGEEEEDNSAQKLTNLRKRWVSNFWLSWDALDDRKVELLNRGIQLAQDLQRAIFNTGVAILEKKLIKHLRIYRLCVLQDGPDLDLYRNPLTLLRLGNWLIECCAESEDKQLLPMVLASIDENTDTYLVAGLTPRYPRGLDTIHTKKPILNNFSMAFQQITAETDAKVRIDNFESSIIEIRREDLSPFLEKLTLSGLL

Variants of: B1
Settings: with cdc45_yeast CDC45, Q08032

effect of a mutation on the interaction	Variant
disrupting interaction	S306D;T310D
